Where a chain is given by its changes, count along the chain named.
T1: human IL-4Rα on TF-1 cells (human, UniProt P24394 26-825)
T1 sequence (looked up): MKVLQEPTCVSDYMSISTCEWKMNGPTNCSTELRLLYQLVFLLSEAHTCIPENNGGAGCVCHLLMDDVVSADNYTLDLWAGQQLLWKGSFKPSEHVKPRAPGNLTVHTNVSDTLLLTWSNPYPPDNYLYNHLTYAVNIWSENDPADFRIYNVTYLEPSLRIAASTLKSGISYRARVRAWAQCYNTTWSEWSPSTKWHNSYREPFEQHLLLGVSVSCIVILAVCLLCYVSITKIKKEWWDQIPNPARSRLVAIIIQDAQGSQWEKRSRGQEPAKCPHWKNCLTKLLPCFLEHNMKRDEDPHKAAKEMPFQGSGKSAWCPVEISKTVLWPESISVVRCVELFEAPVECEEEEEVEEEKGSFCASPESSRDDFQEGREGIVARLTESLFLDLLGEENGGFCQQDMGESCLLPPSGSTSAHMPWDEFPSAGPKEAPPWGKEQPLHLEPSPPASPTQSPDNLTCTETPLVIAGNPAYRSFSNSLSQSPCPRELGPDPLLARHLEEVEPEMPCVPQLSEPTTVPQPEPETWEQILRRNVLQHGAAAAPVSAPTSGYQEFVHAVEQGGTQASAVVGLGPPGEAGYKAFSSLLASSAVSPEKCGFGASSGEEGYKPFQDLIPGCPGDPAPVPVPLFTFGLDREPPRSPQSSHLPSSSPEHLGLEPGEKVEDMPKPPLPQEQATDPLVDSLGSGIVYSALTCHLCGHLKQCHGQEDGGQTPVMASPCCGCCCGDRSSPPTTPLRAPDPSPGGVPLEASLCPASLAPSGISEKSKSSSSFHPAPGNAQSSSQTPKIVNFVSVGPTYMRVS

T2: human IL-4Rα HIS FLAG (in house HEK-EBNA derived) (human, biotinylated where used as the labelled partner in the DELFIA assay)
T2 construct: also called HuIL-4Rα; Human IL4-Rα/FLAG/HIS tag
T2 chain: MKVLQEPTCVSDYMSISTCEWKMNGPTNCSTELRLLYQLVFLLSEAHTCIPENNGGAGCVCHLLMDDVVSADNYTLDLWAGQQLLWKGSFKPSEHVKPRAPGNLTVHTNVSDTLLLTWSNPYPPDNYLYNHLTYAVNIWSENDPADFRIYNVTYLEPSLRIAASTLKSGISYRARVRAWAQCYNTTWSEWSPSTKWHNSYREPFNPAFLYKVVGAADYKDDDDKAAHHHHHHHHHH

T3: cynomolgus IL-4Rα HIS FLAG (cynomolgus)
T3 construct: also called Cyno IL4Rα HIS FLAG; not shown: HIS and FLAG tags and any vector-encoded linker of the cynomolgus HIS FLAG construct
T3 chain: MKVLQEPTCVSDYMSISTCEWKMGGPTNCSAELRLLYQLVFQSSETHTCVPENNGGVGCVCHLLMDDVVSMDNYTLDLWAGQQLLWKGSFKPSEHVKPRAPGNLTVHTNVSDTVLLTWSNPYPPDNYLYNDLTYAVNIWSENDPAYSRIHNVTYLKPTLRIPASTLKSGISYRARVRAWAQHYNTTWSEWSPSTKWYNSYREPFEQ

T4: human IL4Rα/Fc (R and D Systems 604-4R) (human, UniProt P24394 26-231, limits assumed, biotin labelled in the assay of Example 5)
T4 construct: bought protein; also called IL-4Rα/Fc (R&D systems Cat. No. 604-4R-050); not shown: Fc part of the bought fusion
T4 sequence (looked up): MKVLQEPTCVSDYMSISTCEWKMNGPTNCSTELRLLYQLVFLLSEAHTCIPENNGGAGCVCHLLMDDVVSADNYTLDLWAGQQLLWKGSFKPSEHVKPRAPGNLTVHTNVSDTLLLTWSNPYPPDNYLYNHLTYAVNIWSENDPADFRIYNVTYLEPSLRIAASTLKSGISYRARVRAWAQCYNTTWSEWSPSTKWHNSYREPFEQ

B1: Antibody 1 IgG (antibody, V domains shown)
VH: QVQLVQSGAEVKKPGASVKVSCKASGYAFTSYYMHWARQAPGQGLEWMGIINPSGGSTSYAQKFQGRVTMTRDTSTSTVYMELSSLRSEDTAVYYCARGKWWLDYWGKGTLVTVSS
VL: QSVLTQPPSVSAAPGQKVTISCSGGSSNIGNSYVSWYQQLPGTAPKLLIYDNNKRPSGIPDRFSGSKSGTSATLAITGLQTGDEADYYCGTWDTSLSANYVFGTGTKLTVL
B2: Antibody 16 IgG (antibody, V domains shown)
VH: B1 VH with D104Y, Y105N
VL: B1 VL with L96T, S97T, A98Y, N99H, Y100P, V101I
B3: Antibody 20 IgG (antibody, V domains shown)
VH: B1 VH with W101Y, L103M, D104Y, Y105D
VL: B1 VL with L96T, S97V, A98W, N99E, Y100W, V101P
B4: Antibody 21 IgG (antibody, V domains shown)
VH: B1 VH with T58A, W101Y, L103M, D104Y, Y105D
VL: B1 VL with D86V, Y88F, L96T, S97V, A98W, N99E, Y100W, V101P
B5: Antibody 14 IgG (antibody, V domains shown)
VH: B1 VH with D104Y, Y105N
VL: B1 VL with L96P, S97P, A98T, N99K, Y100P, V101L
B6: Antibody 25 IgG (antibody, V domains shown)
VH: B1 VH with S54R, T58A, T69S, W101Y, L103M, D104Y, Y105D
VL: B1 VL with S71T, D93V, L96T, S97V, A98W, N99E, Y100W, V101P
B7: Antibody 13 IgG (antibody, V domains shown)
VH: B1 VH with D104Y, Y105D
VL: B1 VL with L96T, S97T, A98L, N99Q, Y100P, V101L
B8: Antibody 7 IgG (antibody, V domains shown)
VH: B1 VH with L103W, D104Q
VL: B1 VL with L96S, S97P, A98P, N99Q, Y100P, V101I
B9: Antibody 10 IgG (antibody, V domains shown)
VH: B1 VH with D104Y, Y105D
VL: B1 VL with L96T, S97V, A98L, N99T, Y100P, V101I
B10: Antibody 11 IgG (antibody, V domains shown)
VH: B1 VH with L103F, D104Y, Y105D
VL: B1 VL with L96P, A98M, N99I, Y100P, V101L
B11: Antibody 24 IgG (antibody, V domains shown)
VH: B1 VH with S54R, W101Y, L103M, D104Y, Y105D
VL: B1 VL with Y88F, L96T, S97V, A98W, N99E, Y100W, V101P
B12: Antibody 19 IgG (antibody, V domains shown)
VH: B1 VH with L103W, D104Q, Y105H
VL: B1 VL with L96T, S97T, A98Y, N99H, Y100P, V101I
B13: Antibody 15 IgG (antibody, V domains shown)
VH: B1 VH with D104Y, Y105N
VL: B1 VL with L96T, S97H, A98R, N99H, Y100P, V101L
B14: Antibody 31 IgG (antibody, V domains shown)
VH: B1 VH with W101Y, L103M, D104Y, Y105D
VL: B1 VL with N28S, D93A, L96P, S97V, A98W, N99E, Y100W, V101P
B15: Antibody 4 IgG (antibody, V domains shown)
VH: B1 VH with D104Y, Y105N
VL: B1 VL with L96S, S97P, A98P, N99Q, Y100P, V101I
B16: Antibody 8 IgG (antibody, V domains shown)
VH: B1 VH with L103W, D104Q
VL: B1 VL with L96T, S97T, A98Y, N99H, Y100P, V101I
B17: Antibody 42 IgG (antibody, V domains shown)
VH: B1 VH with M48V, E89G, W101Y, L103M, D104Y, Y105D
VL: B1 VL with S2A, Q39R, T43A, L96T, S97G, A98W, N99E, Y100W, V101P
B18: Antibody 12 IgG (antibody, V domains shown)
VH: B1 VH with L103F, D104Y, Y105D
VL: B1 VL with L96T, S97T, A98M, N99Y, Y100P, V101L
B19: Antibody 42 scFv (scFv, V domains shown)
VH: B1 VH with M48V, E89G, W101Y, L103M, D104Y, Y105D
VL: B1 VL with S2A, Q39R, T43A, L96T, S97G, A98W, N99E, Y100W, V101P
notes: tested as purified scFv
B20: Antibody 2 IgG (antibody, V domains shown)
VH: B1 VH with D104Y, Y105N
VL: B1 VL with L96Q, S97P, A98P, Y100P, V101L
B21: Antibody 9 IgG (antibody, V domains shown)
VH: B1 VH with D104Y, Y105N
VL: B1 VL with L96T, S97T, A98M, N99Y, Y100P, V101L
B22: Antibody 41 scFv (scFv, V domains shown)
VH: B1 VH with K12R, S88P, W101Y, L103M, D104Y, Y105D, S116G
VL: B1 VL with S27T, Q39R, S57P, L96T, S97V, A98W, N99E, Y100W, V101P
notes: tested as purified scFv

Tests used:
[1] = molecular target: T1, human IL-4Rα on TF-1 cells; assay: cell-based or functional assay
[2] = molecular target: T1, human IL-4Rα on TF-1 cells; assay: cell-based or functional assay; remark: listed apart in the source
[3] = molecular target: T2, human IL-4Rα HIS FLAG (in house …); assay: SPR (BIAcore 2000), IgG captured on Protein G', receptor as analyte, 1:1 Langmuir
Procedure: (§1) In brief, Protein G′ (Sigma Aldrich, P4689) was covalently coupled to the surface of a CM5 sensor chip using standard amine coupling reagents according to manufacturer's instructions (BIAcore). This Protein G′ surface was used to capture a constant amount of purified anti-IL4R• antibodies or isotype control via the Fc domain. Human or cynomolgus IL-4R• HIS FLAG prepared in HBS-EP buffer (BIAcore AB), at a range of concentrations, between 100 nM and 0.2 nM, were passed over the sensor chip surface. […] The resulting sensorgrams were evaluated using BIA evaluation 4.1 software and fitted to 1:1 Langmuir binding model, to provide the relative binding data. The experiments were performed over the course of at least three separate days to calculate an average monovalent affinity.

[4] = molecular target: T3, cynomolgus IL-4Rα HIS FLAG; assay: as above
Procedure: as §1

[5] = molecular target: T4, human IL4Rα/Fc (R and D Systems 604-4R); assay: HTRF receptor-ligand assay, purified scFv against biotinylated human IL4
[6] = molecular target: T5, cynomolgus IL4Rα/Fc HIS6 (HEK expressed) (cynomolgus monkey); assay: HTRF receptor-ligand assay, purified scFv against biotinylated cynomolgus IL4
T5 construct: also called Cyno IL4R; cynomolgus IL-4Rα HIS Fc (in house HEK-EBNA derived); not shown: HIS6 tag
T5 sequence (chain, as listed by the source): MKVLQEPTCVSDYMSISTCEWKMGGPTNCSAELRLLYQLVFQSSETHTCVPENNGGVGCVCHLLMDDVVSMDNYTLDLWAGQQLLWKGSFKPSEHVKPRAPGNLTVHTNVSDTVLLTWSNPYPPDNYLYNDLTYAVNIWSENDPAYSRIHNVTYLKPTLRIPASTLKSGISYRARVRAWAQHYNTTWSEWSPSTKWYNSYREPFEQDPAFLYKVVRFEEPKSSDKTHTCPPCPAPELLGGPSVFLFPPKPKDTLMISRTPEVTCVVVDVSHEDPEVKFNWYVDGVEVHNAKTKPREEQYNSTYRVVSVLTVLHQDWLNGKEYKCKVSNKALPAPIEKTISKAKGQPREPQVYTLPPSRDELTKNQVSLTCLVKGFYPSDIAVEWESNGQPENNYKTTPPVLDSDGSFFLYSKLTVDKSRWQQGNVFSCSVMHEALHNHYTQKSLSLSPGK

Row | Binder | IC50 (pM), IL-4 induced TF-1 cell proliferation [2] | IC50 (pM), IL-13 induced TF-1 cell proliferation [2] | other results
1 | B1 | – | – | IC50 geomean, IL-4 induced TF-1 cell proliferation [1]: 38 nM; IC50 geomean, IL-13 induced TF-1 cell proliferation [1]: 18 nM
2 | B2 | 6.2 pM | 19.5 pM | –
3 | B3 | 31.1 pM | 66.1 pM | Kd [3]: 1.25 nM; koff [3]: 0.000873 s⁻¹; kon [3]: 698000 M⁻¹ s⁻¹; Kd [4]: 27.7 nM; koff [4]: 0.00452 s⁻¹; kon [4]: 163000 M⁻¹ s⁻¹
4 | B4 | 19.7 pM | 34.7 pM | –
5 | B5 | 3.8 pM | 27.2 pM | –
6 | B6 | 9.8 pM | 23.2 pM | –
7 | B7 | 15.7 pM | 24.6 pM | –
8 | B8 | 12.3 pM | 42.7 pM | –
9 | B9 | 10.1 pM | 25.4 pM | –
10 | B10 | 18.8 pM | 32.7 pM | –
11 | B11 | 12.6 pM | 30.2 pM | –
12 | B12 | 7.6 pM | 22.4 pM | –
13 | B13 | 2.8 pM | 17.8 pM | –
14 | B14 | 20.2 pM | 44.2 pM | –
15 | B15 | 20.9 pM | 58.1 pM | –
16 | B16 | 7.9 pM | 22.4 pM | –
17 | B17 | 20.2 pM | 42.7 pM | –
18 | B18 | 18.2 pM | 40.7 pM | –
19 | B19 | – | – | Ki [5]: 0.027 nM; Ki [6]: 2.5 nM
20 | B20 | 41.7 pM | 171 pM | Kd [3]: 4.51 nM; koff [3]: 0.00294 s⁻¹; kon [3]: 651000 M⁻¹ s⁻¹; Kd [4]: 47.5 nM; koff [4]: 0.00459 s⁻¹; kon [4]: 96700 M⁻¹ s⁻¹
21 | B21 | 8.88 pM | 20.4 pM | Kd [3]: 0.422 nM; koff [3]: 0.000229 s⁻¹; kon [3]: 543000 M⁻¹ s⁻¹; Kd [4]: 124 nM; koff [4]: 0.0163 s⁻¹; kon [4]: 131000 M⁻¹ s⁻¹
22 | B22 | – | – | Ki [5]: 0.053 nM; Ki [6]: 2.7 nM
